This is an account of results in patent US12138415B2, “Increased bioavailability of transdermally delivered agents” (priority 2011, dated 2024).

The test system of one series is Dynamin. As to conditions: cited from earlier work.
In series [1] the test system is monolayer of Caco-2 cells. Kind of series: Caco-2 monolayer permeability (TEER) transport study of FITC-etanercept with Dynasore blocking Dynamin. It counts as in vitro ADME, human. Particulars: DN2 polypropylene film, 0.1 mg/mL Dynasore and FITC-conjugated etanercept, FIG. 25. Here is the method: The permeability effects of films patterned as described above were determined on a monolayer of Caco-2 cells (human epithelial colorectal adenocarcinoma cells). The effects of the nanostructured surfaces on transcellular transport mechanisms were investigated by blocking Dynamin, a critical protein in endocytosis, with Dynasore. Dynamin is a large GTPase protein that self-assembles into a spiral shape, constricting around budding vesicles to free them from the plasma membrane and into the cytosol for transcellular transport. The small molecule, Dynasore, is able to rapidly block the activity of Dynamin by quickly inhibiting the GTPase module of Dynamin within about 2 minutes and has been used in numerous studies for probing the mechanisms of cellular internalization and endocytosis for transcellular transport. The transport study was a transepithelial electrical resistance (TEER) study that was carried out in the presence of Dynasore to biochemically block the activity of Dynamin and preclude both clathrin and caveolin mediated endocytosis.
Films formed as described in Example 1 and Example 2 were utilized including a polypropylene (PP) film formed with a pattern designated as DN2, and a flat, nonpatterned polypropylene film. As control, a monolayer of cells with no associated film was utilized.
• 1. […] Measure fluorescence signal using a spectrofluorometer plate reader. […]
A general note: Caco-2 monolayers are a common model of the intestinal barrier.

The conditions of series [2]: rabbit, in vivo. An excerpt: An array of microneedles including a nanopatterned surface was formed. Initially, an array of microneedles as illustrated in FIG. 2 was formed on a silicon wafer via a photolithography process. Each needle included two oppositely placed side channels, aligned with one through-die hole in the base of the needle (not visible on FIG. 2).
Microneedles were formed according to a typical micromachining process on a silicon based wafer. The wafers were layered with resist and/or oxide layers followed by selective etching (oxide etching, DRIE etching, iso etching), resist stripping, oxide stripping, and lithography techniques (e.g., iso lithography, hole lithography, slit lithography) according to standard methods to form the array of microneedles. The microneedles were 300 microns tall and 100 microns in diameter.
Following formation of the microneedle array, a 5 μm polypropylene film including a DN2 or a polypropylene film including a DN3 pattern formed thereon as described above in Example 1 was laid over the microneedle array. The wafer/film structure was held on a heated vacuum box (3″ H2O vacuum) at elevated temperature (130° C.) for a period of one hour to gently pull the film over the surface of the microneedles while maintaining the nanopatterned surface of the film.
The transdermal patches measured 25 mm by 25 mm with a density of 784 microneedles/cm^2. Control patches were also formed that had no pattern formed on the film subsequently applied to the array of microneedles.
Two subjects were utilized for each device type.
Approximately 100 to 200 μl blood was taken via—mandibular bleeding and then centrifuged at approximately 1300 rpm for 10 minutes in a refrigerated centrifuge (set at 4° C.). The resulting serum was aspirated and transferred within 30 minutes of blood collection/centrifugation to appropriately labeled tubes. The tubes were frozen and stored in the dark at ≤−70° C. until they were analyzed for levels of Enbrel® using Human sTNF-receptor ELISA kit (R&D Systems cat #DRT200). The space time between two blood samplings on the same subject was 24 hours, to prevent unnecessary stress placed on the subject.
Following, the blood serum level gradually declined within 56 hours of attachment and then leveled off.

Series [3] is described as follows: Organ and tissue etanercept concentration after 72 hours (sTNF RII ELISA). Particulars: rabbit.
Description: Test subjects (rabbits) were transdermally dosed with Enbrel® or were subcutaneously (SubQ) dosed with Enbrel®. […] The subcutaneous dose formulation (for the positive control) was prepared to facilitate a 2.5 mg/animal and the transdermal dose formulation was 1.875 mg/animal. Two subjects were utilized for each device type.
After 72 hours, several different organs and tissue types in each subject were examined for etanercept concentration. Specifically, organ representative samples of approximately 100 mg each were placed in labeled 50 mL conical storage tubes and stored in the dark at approximately −70° C. for preservation testing.
For analysis of Enbrel levels in tissues at the analytical laboratory, tissues were tested by use of a Quantikine® Human sTNF RII/TNFRSF1B Immunoassay (catalog no. DRT200, SRT200, PDRT200) available from R&D Systems, Inc. of Minneapolis, MN, USA. The immunoassay is a solid phase ELISA assay for determination of sTNF RII. The protein was measured against the standard provided with the kit, and etanercept was measured against a standard curve, with concentrations based on the dosage details.
All concentrations are provided as ng/g tissue. The ELISA detection mechanism could be utilized for concentrations down to about 0.6 pg/mL. Results of <MIN signify a concentration too low to be determined by the ELISA assay. Results of N/A indicate an error in the ELISA assay, with no reportable results obtained.
In a further series the test system is EpiDerm™ tissue. Description: Etanercept delivery across EpiDerm tissue on nanopatterned film (donor/receptor chamber). The series is classed as in vitro ADME. Particulars: 1 mg/mL, 37° C.; for increase in the amount of etanercept in the receiver chamber: EpiDerm tissue on DN2 patterned film. An excerpt: A device as illustrated in FIG. 28 was assembled including a film (i.e., a membrane) defining a pattern of nanostructures on a surface thereof. The film was formed as described above in Example 1 and was a polypropylene film including a DN2 pattern on the surface thereof. An EpiDerm™ tissue, a three dimensional construct organized into basal, spinous, and granular layers along a multi-layered stratum corneum available from MatTek Corporation, was located on the surface of the film as described above with regard to the monocellular layer.
A 1 mg/mL composition including the high molecular weight drug etanercept (Enbrel®) was prepared. Etanercept is a fusion protein having a molecular weight of 150 kDa. Phosphate buffered saline was located in the receptor chamber. The system was incubated at 37° C. and samples were withdrawn every five hours.
The composition was loaded in to the donor chamber on one side of an EpiDerm™ tissue either on the DN2 nanostructure film or on a polypropylene film with no nanopattern formed thereon (PPUI), and samples were withdrawn from the receptor chamber on the other side of the cell layer, as illustrated in FIG. 28. As can be see with reference to FIG. 29, following one hour, very little etanercept had passed into the receptor chamber for the control, while there was approximately a 1.7 fold increase in the amount of etanercept in the receiver chamber for the sample on the DN2 patterned film. After two hours, there was an approximately 2-fold increase for the system including the DN2 patterned film.

For the compound `O=C(N/N=C/c1ccc(O)c(O)c1)c1cc2ccccc2cc1O` [Dynasore], in the series with Dynamin, the “time to inhibit the GTPase module of Dynamin” value was not above 2 min.
For the compound etanercept, the “effect of blocking the transcellular delivery route on etanercept transport across the layer” value in series [1] was “did not significantly decrease”. In addition, in series [2], the “absorption of etanercept compared to the flat, unstructured device” value is “significantly increased”; the “bioavailability relative to the control patch” value is “about 35 times”; the “blood serum level of etanercept (course)” value is on record as “very low levels”; the “decrease of time to reach the maximum concentration” value is approximately 24 h. Moreover, in series [2], the “increase in the maximum concentration” value was 95%; the “time of peak blood serum level” value was “approximately 48 hours”; the “time within which blood serum level gradually declined, then leveled off” value is not above 56 h. Further, the “etanercept concentration in kidney” value in series [3] (Subcutaneous dose 2.5 mg/animal) is reported as 10.14 ng/g tissue. In addition, in series [3] (microneedle patch with Control Film (no pattern), 1.875 mg/animal), the “etanercept concentration in kidney” value amounted to 10.66 ng/g tissue. The “etanercept concentration in kidney” value in series [3] (microneedle patch with DN3 pattern, 1.875 mg/animal) is 11.3 ng/g tissue. For the same compound, the “increase in the amount of etanercept in the receiver chamber” value in the series with EpiDerm™ tissue (after two hours) was “approximately 2 fold”. In addition, the “increase in the amount of etanercept in the receiver chamber” value in the series on EpiDerm™ tissue (following one hour) is listed as approximately 1.7 fold. The “amount of etanercept passed into the receptor chamber” value in the series with EpiDerm™ tissue (EpiDerm tissue on polypropylene film with no nanopattern (PPUI, control), following one hour) is listed as “very little”.
